Assay [1] deals with LTB4R (Homo sapiens, UniProt Q15722). The assay is described as follows: GPCR panel (control), Arrestin, CHO-K1. To be noted: reference agonist. It counts as cell-based.
Assay [2] deals with HTR1B (Homo sapiens, UniProt P28222). The assay is described as follows: GPCR panel (control), Arrestin, U2OS. The class given is cell-based. To be noted: reference agonist.
The target of assay [3] is HTR1E (Homo sapiens, UniProt P28566). The assay is described as follows: GPCR panel (control), Arrestin, U2OS. The class given is cell-based. To be noted: reference agonist.
The target of assay [4] is HTR1F (Homo sapiens, UniProt P30939). As to the kind of experiment: GPCR panel (control), Arrestin, U2OS. It counts as cell-based. The note with it: reference agonist.
The target of assay [5] is HTR5A (Homo sapiens, UniProt P47898). The assay is described as follows: GPCR panel (control), Arrestin, U2OS. The class given is cell-based. The note with it: reference agonist.
In assay [6] the target is HTR2A (Homo sapiens, UniProt P28223). The note with it: reference agonist, U2OS, Arrestin.
Assay [7] has as its system MRGPRX2. The note with it: MRGPRX2 recombinantly expressed in HEK293 cells; read-out: EC50, calcium mobilization assays; cited from earlier work. From the text:
Other CXCLs contain sequences that are similar to the proposed pentapeptidic motif, but are either deeply buried in the typical 3D structure of the chemokine, or located near acidic amino acids, that are not tolerated by the negatively charged binding pocket of MRGPRX2 (see sequence alignment in Supplementary Fig. 4 for further information). […] No ...
(In general: Calcium assays in cells follow changes in intracellular calcium, usually with a dye or a luminescent sensor.)

The target of assay [8] is MRGPRX2 fused to ProLink (PK), in CHO β-arrestin cells (human) (UniProt Q96LB1).
In assay [9] the target is MRGPRX2 in the calcium mobilization assays of the small CXCL14 fragments and mutants (human) (UniProt Q96LB1).
In assay [10] the target is MRGPRX2 fused to ProLink (PK), in CHO β-arrestin cells (human) (UniProt Q96LB1). This is another data set of the same source.
In assay [11] the target is MRGPRX2 in the calcium mobilization assays of the small CXCL14 fragments and mutants (human) (UniProt Q96LB1). The source holds these as a separate data set.
Assay [12] deals with T1, mouse MRGPRB2 in 1321N1 astrocytoma cells (mouse) (UniProt Q3KNA1).
T1 sequence: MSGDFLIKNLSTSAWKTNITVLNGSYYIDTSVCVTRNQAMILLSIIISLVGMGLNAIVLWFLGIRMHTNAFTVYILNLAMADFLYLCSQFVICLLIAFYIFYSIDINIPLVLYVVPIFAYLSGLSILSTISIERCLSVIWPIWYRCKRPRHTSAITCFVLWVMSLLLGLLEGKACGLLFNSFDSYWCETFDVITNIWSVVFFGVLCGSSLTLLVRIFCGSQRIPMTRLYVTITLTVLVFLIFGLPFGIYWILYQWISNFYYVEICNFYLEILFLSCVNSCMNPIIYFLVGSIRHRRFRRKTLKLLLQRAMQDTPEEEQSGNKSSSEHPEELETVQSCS

Assay [13] addresses MRGPRX2 fused to ProLink (PK), in CHO β-arrestin cells (human) (UniProt Q96LB1). This is another data set of the same source.
Assay [14] concerns the target MRGPRX2 in CHEM-1 cells (human) (UniProt Q96LB1).
Assay [15] addresses MRGPRX2 in LN229 glioblastoma cells (human) (UniProt Q96LB1).
Assay [16] has as its target T1, mouse MRGPRB2 in 1321N1 astrocytoma cells (mouse). The source holds these as a separate data set.
In assay [17] the target is T2, MRGPRX2 (Homo sapiens, UniProt Q96LB1).
T2 sequence (Q96LB1 1-330): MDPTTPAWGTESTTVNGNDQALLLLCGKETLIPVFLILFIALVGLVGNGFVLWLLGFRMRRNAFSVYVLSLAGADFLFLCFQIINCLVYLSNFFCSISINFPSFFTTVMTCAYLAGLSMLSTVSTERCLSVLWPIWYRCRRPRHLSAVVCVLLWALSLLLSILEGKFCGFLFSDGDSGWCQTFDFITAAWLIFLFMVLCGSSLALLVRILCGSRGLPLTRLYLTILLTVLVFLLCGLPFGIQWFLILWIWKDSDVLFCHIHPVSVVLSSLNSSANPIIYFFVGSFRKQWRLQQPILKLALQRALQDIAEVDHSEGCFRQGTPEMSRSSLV
The assay is described as follows: β-arrestin recruitment assay (enzyme complementation), β-arrestin-CHO cells recombinantly expressing MRGPRX2. The class given is cell-based. To be noted: 90 min incubation, chemiluminescence, means ± SD of 3 to 5 independent experiments in duplicates, read-out: EC50 ± SD, β-arrestin assays. (In general: Recruitment of arrestin is a read-out of receptor activation apart from second messengers.)

Assay [18] deals with T2, MRGPRX2. As to the kind of experiment: calcium mobilization assay, LN229 cells recombinantly expressing MRGPRX2. It counts as cell-based. To be noted: Fluo-4, means ± SD of 3 to 4 independent experiments in duplicates, read-out: EC50 ± SD, calcium mobilization assays. On the procedure:
LN229 glioblastoma cells ATCC®, CRL-2611TM, were a kind gift from Prof. Dr. B. Scheffler (University of Bonn, Germany). LN229 cells stably expressing MRGPRX2 were generated by retroviral transfection. Briefly, GP^+envAM-12 packaging cells (LGC Standards GmbH, Wesel, Germany), derived from mouse fibroblasts, were seeded at a density of 1.5 × 10^6 cells per T25-flask in 5 mL of Dulbecco’s Modified Eagle Medium (DMEM, Thermo Fisher Scientific, Waltham, MA, USA), supplemented with 10% fetal calf serum (FCS), 100 U/mL of penicillin (PAN-Biotech) and 100 µg/mL of streptomycin (PAN-Biotech). Packaging cells were transfected with pLXSN-MRGPRX2 and pcDNA3-VSV-G using Lipofectamine 2000 according to the manufacturer’s instructions (Thermo Fisher Scientific, Darmstadt, Germany). The medium was exchanged for DMEM supplemented with 10% FCS, 100 U/mL of penicillin, 100 µg/mL of streptomycin and 3 mM of sodium butyrate (stock solution: 500 mM in water, sterile-filtered) to enhance virus production. To produce retroviral particles, cells were cultivated for 48 h at 32°C and 5% CO2. On day 4, the target cells LN229 were seeded into T25 cell culture flasks (5 × 10^5 cell). […]
(§1) […]. […] For the determination of baseline fluorescence, HBSS buffer without additives was used. […]

In assay [19] the target is T3, MRGPRB2 (Mus musculus, UniProt Q3KNA1).
T3 construct: expressed in transfected cells; host or cells: 1321N1 astrocytoma cells (lentiviral, pLVX MRGPRB2-IRES-mCherry)
T3 sequence (Q3KNA1 1-338): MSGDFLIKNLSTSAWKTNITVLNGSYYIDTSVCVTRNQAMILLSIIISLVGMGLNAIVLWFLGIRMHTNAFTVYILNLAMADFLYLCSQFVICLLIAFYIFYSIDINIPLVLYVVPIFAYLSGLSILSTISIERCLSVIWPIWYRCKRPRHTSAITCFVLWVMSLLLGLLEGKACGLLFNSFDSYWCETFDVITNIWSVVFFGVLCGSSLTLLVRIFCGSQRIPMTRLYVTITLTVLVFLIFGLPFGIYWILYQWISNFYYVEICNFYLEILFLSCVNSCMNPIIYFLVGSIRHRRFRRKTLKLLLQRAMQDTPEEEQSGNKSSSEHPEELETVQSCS
As to the kind of experiment: calcium mobilization assay, 1321N1 astrocytoma cells stably expressing MRGPRB2. It counts as cell-based. On the procedure:
1321N1 Astrocytoma cells were purchased from Sigma Aldrich-Merck KGaA (Darmstadt, Germany, 86030402). The cells were transfected with MRGPRB2 using lentiviral transfection. 1.5 × 10^6 Lenti-X 293 T cells were seeded into each T25 cell culture flask in 5 mL of DMEM, supplemented with 10% FCS, 100 U/mL of penicillin and 100 µg/mL of streptomycin. After 20 h of incubation at 37°C and 5% CO2, when the cells were grown to 80–90% confluence, the medium was exchanged for 5 mL DMEM with 10% FCS without antibiotics and incubated for 4 h. Subsequently, transfection took place using Xfect polymer according to the manufacturer’s protocol (Clontech, Takara Bio Europe, France). The pLVX MRGPRB2-IRES-mCherry-Xfect mixture was added to the packaging cells and they were incubated overnight. […] To know how many astrocytoma cells expressed the target receptor, cells were analyzed under the fluorescence microscope at the m-cherry excitation wavelength of 587 nm using its emission wavelength of 610 nm. Subsequently, fluorescent single clones were isolated by fluorescence-activated cell sorting.
as §1

In assay [20] the target is T2, MRGPRX2. As to the kind of experiment: calcium mobilization assay, CHEM-1 cells recombinantly expressing MRGPRX2. It counts as cell-based. Also noted: host or cells: CHEM-1 adherent rat hematopoietic cells. The note with it: for pEC50: Fig. 3d. From the text:
To confirm the initial results obtained in the β-arrestin recruitment assays, we established calcium mobilization assays in two different recombinant cell lines, CHEM-1 and LN229 cells, respectively. CHEM-1 cells are adherent rat hematopoietic cells with a high endogenous expression level of the promiscuous Gα15 protein enabling the measuring of calcium signaling of a large variety of GPCRs. […]. Subsequently, we employed recombinant human glioblastoma LN229 cells, a human cell line derived from glioblastoma multiforme tumors. […].
The cell lines CHEM1 and CHEM1-MRGPRX2 are adherent rat cell lines (HTSCHEM-1RTA, HTS058RTA, Merck-Millipore, Darmstadt, Germany); which were cultured under standard cell culture conditions.
A cell-based fluorometric assay was employed for the determination of intracellular calcium release using Fluo-8. Cells were seeded into microtiter plates and incubated under standard cell culture conditions. After 24 h the medium was removed, and the cells were washed with phosphate-buffered saline (PBS). The cells were incubated with loading buffer (40 ml PBS with 2 mM Ca^2+, 800 µl of brilliant black solution (2%), 732 µl of probenecid solution (0.5 M) in 1 N NaOH, 400 µL of pluronic (10%) in water, and 152 µl of Fluo-8 (5.7 ng/ml in water)) for 30 min. For fluorescence readout and compound testing a FLIPR tetra system was used according to the manufacture’s protocol (Molecular Devices, CA 94089- 1136, USA).

Sequence of HTR1B (P28222 whole entry): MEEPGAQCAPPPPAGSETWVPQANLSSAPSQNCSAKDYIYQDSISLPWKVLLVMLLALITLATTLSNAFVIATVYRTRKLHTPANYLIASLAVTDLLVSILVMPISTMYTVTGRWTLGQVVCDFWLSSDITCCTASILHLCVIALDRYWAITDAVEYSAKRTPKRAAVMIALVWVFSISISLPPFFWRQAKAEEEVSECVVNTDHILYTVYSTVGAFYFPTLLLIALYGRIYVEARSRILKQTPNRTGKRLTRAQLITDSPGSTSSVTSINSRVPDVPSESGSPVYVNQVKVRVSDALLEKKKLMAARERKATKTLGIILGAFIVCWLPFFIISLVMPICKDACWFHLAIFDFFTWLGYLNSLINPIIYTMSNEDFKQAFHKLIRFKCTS
Sequence of HTR1F (P30939 whole entry): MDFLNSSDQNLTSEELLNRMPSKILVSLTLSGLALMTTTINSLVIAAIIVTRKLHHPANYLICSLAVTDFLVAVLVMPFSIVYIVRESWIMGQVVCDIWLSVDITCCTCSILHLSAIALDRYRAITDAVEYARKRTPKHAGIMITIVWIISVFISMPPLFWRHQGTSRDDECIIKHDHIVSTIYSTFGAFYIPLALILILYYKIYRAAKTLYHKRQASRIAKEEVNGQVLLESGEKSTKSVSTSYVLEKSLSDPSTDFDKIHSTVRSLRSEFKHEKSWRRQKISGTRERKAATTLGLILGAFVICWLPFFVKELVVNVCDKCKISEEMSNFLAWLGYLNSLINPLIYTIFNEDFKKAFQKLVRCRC
Sequence of HTR5A (P47898 whole entry): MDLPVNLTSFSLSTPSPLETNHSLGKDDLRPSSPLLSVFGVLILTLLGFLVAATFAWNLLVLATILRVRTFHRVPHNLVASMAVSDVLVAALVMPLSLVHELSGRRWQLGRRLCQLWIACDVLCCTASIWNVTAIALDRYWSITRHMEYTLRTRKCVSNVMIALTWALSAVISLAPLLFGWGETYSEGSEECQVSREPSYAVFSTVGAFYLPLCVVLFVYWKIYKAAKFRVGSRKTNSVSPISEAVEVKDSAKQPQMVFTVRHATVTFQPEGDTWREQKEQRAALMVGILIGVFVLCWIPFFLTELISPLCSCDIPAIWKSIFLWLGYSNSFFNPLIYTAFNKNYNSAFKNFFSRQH
Sequence of LTB4R (Q15722 whole entry): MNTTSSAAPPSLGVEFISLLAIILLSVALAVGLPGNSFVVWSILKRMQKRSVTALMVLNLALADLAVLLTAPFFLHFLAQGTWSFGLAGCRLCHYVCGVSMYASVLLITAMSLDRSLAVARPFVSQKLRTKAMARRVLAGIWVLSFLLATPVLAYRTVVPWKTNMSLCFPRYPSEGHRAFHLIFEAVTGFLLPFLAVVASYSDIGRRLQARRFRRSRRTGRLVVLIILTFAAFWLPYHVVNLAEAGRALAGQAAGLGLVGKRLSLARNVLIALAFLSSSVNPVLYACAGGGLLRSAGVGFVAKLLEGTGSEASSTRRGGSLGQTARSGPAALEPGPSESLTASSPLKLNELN
Sequence of HTR1E (P28566 whole entry): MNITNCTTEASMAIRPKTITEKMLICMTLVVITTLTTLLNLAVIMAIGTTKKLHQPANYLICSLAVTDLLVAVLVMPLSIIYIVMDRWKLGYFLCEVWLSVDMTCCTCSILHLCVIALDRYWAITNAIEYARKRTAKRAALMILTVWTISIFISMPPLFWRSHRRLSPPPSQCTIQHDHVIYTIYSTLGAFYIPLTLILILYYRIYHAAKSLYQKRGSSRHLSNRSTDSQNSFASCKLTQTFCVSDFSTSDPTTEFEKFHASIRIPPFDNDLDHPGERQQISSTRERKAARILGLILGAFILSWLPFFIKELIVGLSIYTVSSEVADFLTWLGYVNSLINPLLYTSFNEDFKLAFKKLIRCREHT
Sequence of HTR2A (P28223 whole entry): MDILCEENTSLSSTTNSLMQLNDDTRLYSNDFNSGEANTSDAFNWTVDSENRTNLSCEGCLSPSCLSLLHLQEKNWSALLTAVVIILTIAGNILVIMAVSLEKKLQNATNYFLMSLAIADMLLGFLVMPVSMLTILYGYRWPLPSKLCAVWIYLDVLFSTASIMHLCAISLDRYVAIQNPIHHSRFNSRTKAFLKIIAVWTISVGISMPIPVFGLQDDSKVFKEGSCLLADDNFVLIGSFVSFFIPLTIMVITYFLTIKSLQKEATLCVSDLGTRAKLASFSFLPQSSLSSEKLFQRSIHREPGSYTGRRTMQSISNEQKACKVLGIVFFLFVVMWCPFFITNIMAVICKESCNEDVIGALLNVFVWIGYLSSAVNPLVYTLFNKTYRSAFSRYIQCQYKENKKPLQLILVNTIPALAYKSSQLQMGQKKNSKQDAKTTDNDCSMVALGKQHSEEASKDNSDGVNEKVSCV

For orientation: EC80 means the concentration needed for an effect of 80%. `CCCCC/C=C\C[C@@H](O)/C=C/C=C/C=C\[C@@H](O)CCCC(=O)O` [Leukotriene B4]: the “EC80” value in assay [1] came to 5000 nM.

For `NCCc1c[nH]c2ccc(O)cc12` [Serotonin], the concentration for an effect of 80% (EC80) in assay [2] stood at 7700 nM; in assay [3] it was 1300 nM; in [4] it was 6600 nM; in [5] it was 630 nM; in assay [6], 7100 nM.

One may read the EC50 as the concentration that produces a half-maximal response. For “CXCL4: chemokine, also known as platelet factor 4”, the EC50 in [7] is 9000 nM.

B1: CXCL14(57-65) (peptide)
peptide: STKRFIKWY
In the case of B1, in [8], the Emax, β-arrestin recruitment at MRGPRX2, normalized to the maximal effect of CXCL14 was 195%. Besides, the Emax, calcium mobilization at MRGPRX2, normalized to the maximal effect of CXCL14 in assay [9] worked out at 170%. The same molecule yielded an EC50, β-arrestin recruitment at MRGPRX2 in assay [10] of 1960 nM. The EC50, calcium mobilization at MRGPRX2 in assay [11] worked out at 301 nM.

B2: CXC motif chemokine 14 (CXCL14) (ligand)
chain: SKCKCSRKGPKIRYSDVKKLEMKPKYPHCEEKMVIITTKSVSRYRGQEHCLHPKLQSTKRFIKWYNAWNEKRRVYEE
In [12], B2 registered an EC50, activation of MRGPRB2 as repeated in the discussion of 923 nM. For the same molecule, the EC50, β-arrestin recruitment, β-arrestin-CHO cells recombinantly expressing MRGPRX2 in [13] is 905 nM. The EC50, calcium mobilization, CHEM-1 cells recombinantly expressing MRGPRX2 (no response in the parental CHEM1 cell line) in assay [14] turned out to be 889 nM. For the same molecule, in [15], the EC50, calcium mobilization, LN229 cells recombinantly expressing MRGPRX2 (no activation in non-transfected LN229 cells) worked out at 504 nM. Besides, in assay [16], the EC50, calcium mobilization, 1321N1 astrocytoma cells stably expressing MRGPRB2 (no response in non-transfected cells) turned out to be 972 nM.

B3: CXCL14: mature 77-amino acid chemokine, 9.4 kDa, also known as BRAK; purchased from BIOZOL (protein)
chain: SKCKCSRKGPKIRYSDVKKLEMKPKYPHCEEKMVIITTKSVSRYRGQEHCLHPKLQSTKRFIKWYNAWNEKRRVYEE
modifications: two disulfide bonds (native chemokine fold); entity numbering = mature + 1
For orientation: pEC50 means −log10 of the EC50, conventionally taken in molar units. With B3, the EC50 in [17] amounted to 905 ± 548 nM; in assay [18], 504 nM; in [20] (CHEM-1 cells recombinantly expressing MRGPRX2, Fluo-8, FLIPR, read-out: EC50, calcium mobilization assays), 889 nM. Also, the “pEC50 MRGPRB2” value in [19] (Fig. 6c source data, mean, SD and N in columns beside it (N = 2-3)) is listed as 6.032. Also, in assay [19] (Fig. 6c, mean as listed in the unpaired t test with Welch correction, MRGPRX2 vs. MRGPRB2), the “Mean of MRGPRB2 (pEC50)” value is 6.03. For the same molecule, the pEC50 in assay [20] (replicate column 1) is 5.955; in assay [20] (replicate column 2), 6.033; in [20] (replicate column 3) it was 6.061; in assay [20] (replicate column 4), 6.051.

The values are drawn from publication PMC10771525 (Communications Biology, 2024).
